According to patent US20050255547A1:

Biological target: oligomerized FasL
Assay: cell-based or functional assay

| Substance | inhibition of FasL-induced apoptosis of A20 cells (IC50) [µg/mL] |
| --- | --- |
| FasR:mACRP30 (receptor) | 0.08 |
| Fas-Fc (Fc fusion) | > 1 |
| Fas-COMP (receptor) | 0.035 |
